Biological target: E2F1 (UniProt Q01094)
Test: proximity ligation; in situ PLA in fixed, permeabilised H1299 cells, under normal (EV) and GAr-induced mRNA translation stress conditions; Duolink PLA kit; the antibodies of the protein-protein PLA are not told

UniProt Q01094, sequence (Q01094 whole entry): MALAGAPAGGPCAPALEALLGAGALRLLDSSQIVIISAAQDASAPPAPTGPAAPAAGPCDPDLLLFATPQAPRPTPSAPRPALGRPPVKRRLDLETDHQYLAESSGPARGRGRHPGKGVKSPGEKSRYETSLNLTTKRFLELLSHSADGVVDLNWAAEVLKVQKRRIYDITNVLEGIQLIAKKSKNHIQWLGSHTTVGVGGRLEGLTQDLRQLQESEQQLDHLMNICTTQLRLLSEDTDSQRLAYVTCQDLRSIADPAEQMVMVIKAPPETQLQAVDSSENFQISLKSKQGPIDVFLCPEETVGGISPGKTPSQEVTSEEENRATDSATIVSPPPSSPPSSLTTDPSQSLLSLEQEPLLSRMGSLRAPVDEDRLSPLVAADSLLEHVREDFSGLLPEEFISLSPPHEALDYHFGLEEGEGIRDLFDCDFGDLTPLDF

- PLA interactions per cell (interactions per cell): 20
Substance: MDM2 (from UniProt Q00987 1-491) (natural protein)
